Biological target: agrl1_mouse Adgrl1 (UniProt Q80TR1)
UniProt Q80TR1, sequence (Q80TR1 whole entry): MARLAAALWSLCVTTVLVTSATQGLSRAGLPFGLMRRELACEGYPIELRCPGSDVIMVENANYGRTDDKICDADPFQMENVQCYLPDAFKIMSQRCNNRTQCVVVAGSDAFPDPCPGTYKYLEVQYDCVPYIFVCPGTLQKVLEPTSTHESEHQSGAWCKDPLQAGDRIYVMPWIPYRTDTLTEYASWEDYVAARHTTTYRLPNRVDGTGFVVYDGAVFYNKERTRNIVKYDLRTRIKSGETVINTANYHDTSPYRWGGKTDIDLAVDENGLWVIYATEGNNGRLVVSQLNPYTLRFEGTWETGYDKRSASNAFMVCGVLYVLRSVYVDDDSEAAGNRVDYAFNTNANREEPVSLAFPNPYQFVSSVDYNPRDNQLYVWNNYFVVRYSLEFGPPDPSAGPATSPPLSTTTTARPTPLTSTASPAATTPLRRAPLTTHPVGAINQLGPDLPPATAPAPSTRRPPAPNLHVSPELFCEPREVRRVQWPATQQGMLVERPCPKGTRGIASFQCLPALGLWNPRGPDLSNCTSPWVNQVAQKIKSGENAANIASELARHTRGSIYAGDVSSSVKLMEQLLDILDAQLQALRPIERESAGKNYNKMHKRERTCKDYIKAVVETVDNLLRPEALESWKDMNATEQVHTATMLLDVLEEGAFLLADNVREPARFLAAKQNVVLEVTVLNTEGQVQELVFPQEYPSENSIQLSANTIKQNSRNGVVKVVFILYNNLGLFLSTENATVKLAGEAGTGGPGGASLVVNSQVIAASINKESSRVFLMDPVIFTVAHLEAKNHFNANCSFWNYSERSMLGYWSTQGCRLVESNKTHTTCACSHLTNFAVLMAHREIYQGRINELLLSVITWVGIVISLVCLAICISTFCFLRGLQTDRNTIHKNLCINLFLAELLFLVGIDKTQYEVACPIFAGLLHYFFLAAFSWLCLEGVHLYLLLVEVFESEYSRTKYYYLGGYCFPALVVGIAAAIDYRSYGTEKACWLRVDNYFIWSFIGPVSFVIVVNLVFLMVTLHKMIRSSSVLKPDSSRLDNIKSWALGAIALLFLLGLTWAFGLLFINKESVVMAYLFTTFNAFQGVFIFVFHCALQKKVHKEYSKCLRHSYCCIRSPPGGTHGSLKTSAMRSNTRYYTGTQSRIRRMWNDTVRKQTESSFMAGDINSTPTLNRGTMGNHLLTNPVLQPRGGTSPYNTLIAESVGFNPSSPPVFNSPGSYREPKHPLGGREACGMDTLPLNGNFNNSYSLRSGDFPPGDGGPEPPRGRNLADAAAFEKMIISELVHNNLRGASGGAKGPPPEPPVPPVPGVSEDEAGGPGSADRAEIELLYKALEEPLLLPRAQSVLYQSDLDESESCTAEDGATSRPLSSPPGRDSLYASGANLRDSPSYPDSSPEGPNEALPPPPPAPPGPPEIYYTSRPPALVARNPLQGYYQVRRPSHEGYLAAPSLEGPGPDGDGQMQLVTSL

Teneurin-1 (Mus musculus), Q9WTS4 R37K
effect of a mutation on the interaction: with no effect

Source: IntAct's records for PubMed 30774623
